According to PMC8295500, “Co-Immobilized Capillary Enzyme Reactor Based on Beta-Secretase1 and Acetylcholinesterase: A Model for Dual-Ligand Screening” (Frontiers in Chemistry, 2021):

Substrate: CC(=O)OCC[N+](C)(C)C
Test: purified protein
Assay type: biochemical, Homo sapiens

B1: acetylcholinesterase (huAChE) (Homo sapiens) (protein)
chain: EGREDAELLVTVRGGRLRGIRLKTPGGPVSAFLGIPFAEPPMGPRRFLPPEPKQPWSGVVDATTFQSVCYQYVDTLYPGFEGTEMWNPNRELSEDCLYLNVWTPYPRPTSPTPVLVWIYGGGFYSGASSLDVYDGRFLVQAERTVLVSMNYRVGAFGFLALPGSREAPGNVGLLDQRLALQWVQENVAAFGGDPTSVTLFGESAGAASVGMHLLSPPSRGLFHRAVLQSGAPNGPWATVGMGEARRRATQLAHLVGCPPGGTGGNDTELVACLRTRPAQVLVNHEWHVLPQESVFRFSFVPVVDGDFLSDTPEALINAGDFHGLQVLVGVVKDEGSYFLVYGAPGFSKDNESLISRAEFLAGVRVGVPQVSDLAAEAVVLHYTDWLHPEDPARLREALSDVVGDHNVVCPVAQLAGRLAAQGARVYAYVFEHRASTLSWPLWMGVPHGYEIEFIFGIPLDPSRNYTAEEKIFAQRLMRYWANFARTGDPNEPRDPKAPQWPPYTAGAQQYVSLDLRPLEVRRGLRAQACAFWNRFLPKLLSATDTLDEAERQWKAEFHRWSSYMVHWKNQFDHYSKQDRCSDL
notes: human recombinant, expressed in HEK 293 cells; immobilized on fused silica capillary
Km: 23.3 ± 1 µM
